The results in this text go back to publication PMC7592150.

The target of this experiment is PCSK9 (UniProt Q8NBP7). Briefly: SPR.
UniProt Q8NBP7, sequence (Q8NBP7 31-692): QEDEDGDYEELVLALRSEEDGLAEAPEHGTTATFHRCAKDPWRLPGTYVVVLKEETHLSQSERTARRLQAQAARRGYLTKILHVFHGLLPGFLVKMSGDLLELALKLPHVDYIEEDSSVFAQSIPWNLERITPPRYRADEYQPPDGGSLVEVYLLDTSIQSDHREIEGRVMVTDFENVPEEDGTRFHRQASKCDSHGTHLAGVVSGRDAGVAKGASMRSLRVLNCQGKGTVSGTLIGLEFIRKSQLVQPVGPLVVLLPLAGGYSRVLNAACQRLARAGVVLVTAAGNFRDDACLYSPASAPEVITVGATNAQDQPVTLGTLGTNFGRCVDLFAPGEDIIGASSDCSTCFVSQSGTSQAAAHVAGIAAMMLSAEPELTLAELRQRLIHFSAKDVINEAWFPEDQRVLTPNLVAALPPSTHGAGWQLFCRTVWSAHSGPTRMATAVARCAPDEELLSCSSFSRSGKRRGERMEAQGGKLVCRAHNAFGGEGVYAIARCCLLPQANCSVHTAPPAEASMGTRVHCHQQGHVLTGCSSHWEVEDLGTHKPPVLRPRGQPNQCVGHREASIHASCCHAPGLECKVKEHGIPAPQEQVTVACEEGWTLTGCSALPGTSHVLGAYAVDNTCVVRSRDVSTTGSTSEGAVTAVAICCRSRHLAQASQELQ

The Kd is the concentration at which binding is half-saturated. Read a high Kd as a looser complex. In turn, Bococizumab (antibody) yielded a Kd of 0.03 nM.
